Substitutions are numbered along the chain they refer to.
B1: Ab352: humanized anti-ALK antibody; VL SEQ ID NO: 421, VH SEQ ID NO: 430 (antibody, V domains shown)
VH: EVQLVQSGPEVKKPGTSVKLSCKASGYTFTSYWMHWVRQARGQRLEWIGYIKPSSGYTKYNQKFKDRATLTADKSTSTAYMELSSLRSEDTAVYYCARDYYGSSSWFAYWGQGTLVTVSS
VL: EIVMTQSPAFLSVTPGEKVTITCKASQNVGTNVAWYQQKPDQAPKALIYSASYRYSGVPSRFSGSGSGTDFTLTISSLEAEDAATYYCQQYNSYPYMYTFGQGTKLEIK
modifications: VH domain - Ab352; VL domain - Ab351
B2: Ab355: humanized anti-ALK antibody; VL SEQ ID NO: 421, VH SEQ ID NO: 433 (antibody, V domains shown)
VH: B1 VH with E1Q, P9A, K12A, T16A, R38K, R41P, R44G, R67K, S84R, E89D
VL: B1 VL
modifications: VH domain - Ab355; VL domain - Ab351
B3: Ab330: anti-ALK monoclonal antibody; VL SEQ ID NO: 415, VH SEQ ID NO: 416 (antibody, V domains shown)
VH: EVQVVETGGGVVQPGKSLEITCATSGLTFSTAWMYWVRQSSDRRLEWIARIKDKSNKFASDYVESVRGRFTISRDDSRSSVYLQMNNLKEEDTATYYCTTSYGYAWGQGVMVTVSS
VL: DIQMTQSPSSMSASLGDRVTITCQASQDIGNYLIWFQQKPGKSPRPLIYYATNLANGVPSRFSGSRSGSEYSLTITSLESEDMADYHCLQYKQHLTFGSGTKLEIER
modifications: VH domain - Ab330; VL domain - Ab330
B4: Ab331: anti-ALK monoclonal antibody; VL SEQ ID NO: 417, VH SEQ ID NO: 418 (antibody, V domains shown)
VH: B3 VH with K57N
VL: B3 VL with V19I
modifications: VH domain - Ab331; VL domain - Ab331
B5: Ab322: anti-ALK monoclonal antibody; VL SEQ ID NO: 399, VH SEQ ID NO: 400 (antibody, V domains shown)
VH: QVQLQQSGAELAKPGASVKLSCKASGYTFTNYWMHWVKQRPGQGLEWIGYINPSSGYTKYNQKFKDKATLTADKSSSTAYMQLSSLTYEDSAVYYCARDYYGSSSWFAYWGQGTLVTVSA
VL: DIVMTQSQRFMSTSVGDRVSVTCKASQNVGTNVAWYQQKPGQSPKALIYSASYRYSGVPDRFTGSGSGTDFTLTVSNVQSEDLAEYFCQQYNSYPYMYTFGGGTKLEIKR
modifications: VH domain - Ab322; VL domain - Ab322
B6: Ab328: anti-ALK monoclonal antibody; VL SEQ ID NO: 411, VH SEQ ID NO: 412 (antibody, V domains shown)
VH: B5 VH with N31S, Y88F
VL: B5 VL with R9K, Q42H, V75I, Q90R, Y98F
modifications: VH domain - Ab328; VL domain - Ab328
B7: Ab329: anti-ALK monoclonal antibody; VL SEQ ID NO: 413, VH SEQ ID NO: 414 (antibody, V domains shown)
VH: QVQLKESGPGLVKPSATLSLTCTVSGFSLTSYHVCWIRQTPGKGLEWMGVIWGDGRTTYNPPLKSRLSISRDTSKSQVFLKMSSLKTEDTATYYCARATMTGHGDAWGQGASVTVSS
VL: DIQMTQSPASLSASLEEIVTITCQASQDIDNYLSWYQQKPGKSPHLLIHSATSLADGVPSRFSGGRSGTQFSLKINRLQVEDTGIYYCLQHYSGWTFGGGTKLELKR
modifications: VH domain - Ab329; VL domain - Ab329
B8: Ab332: anti-ALK monoclonal antibody; VL SEQ ID NO: 419, VH SEQ ID NO: 420 (antibody, V domains shown)
VH: EVQLQQSGPELVKPGTSVKISCKASGYTFTDYYMNWMKQSHGKSLEWIGDINPNNGVTSYNQKFKGKATLTVDKSSSTAYMELRSLTSEDSAVYYCAREDYGSNYFDYWGQGTTLTVSS
VL: DIVLTQSPASLAVSLGQRATISCKASQSVDYDGDSYMNWYQQKPGQPPKLLIYAASNLESGIPARLSGSGSGTDFTLNIHPVEEEDAATYYCQQSNEDPPTFGGGTKLEIRR
modifications: VH domain - Ab332; VL domain - Ab332
B9: Ab320: anti-ALK monoclonal antibody; VL SEQ ID NO: 395, VH SEQ ID NO: 396 (antibody, V domains shown)
VH: QVQLQQSGAELVKPGASVKISCKASGYAFSSYWMNWVKQRPGKGLEWIGQIYPGDGDTNYNGKFKGKATLTADKSSSTAYMQLSSLTSEDSAVYFCASYYYGSKAYWGQGTLVTVSA
VL: DIQMTQSPASLAASVGETVTITCRASENIYYSLAWYQQKQGKSPQLLIYNANSLEDGVPSRFSGSGSGTQYSMKINSMQPEDTATYFCKQAYDVPFTFGSGTKLEIKR
modifications: VH domain - Ab320; VL domain - Ab320
B10: Ab325: anti-ALK monoclonal antibody; VL SEQ ID NO: 405, VH SEQ ID NO: 406 (antibody, V domains shown)
VH: QVQLQQSGAELVKPGASVKISCKASGYAFSSYWMNWVKQRPGKGLEWIGQIYPGDGDTNYNGKFKGKATLTADKSSSTAYMQLSSLTSEDSAVYFCARWYYGSYYAMDYWGQGTSVTVSS
VL: DIQMTQTTSSLSASLGDRVTISCRASQDISNYLNWYQQKPDGTVKLLIYYTSRLHSGVPSRFSGSGSGTDYSLTISNLEQEDIATYFCQQGNTLPRTFGGGTKLEIKR
modifications: VH domain - Ab325; VL domain - Ab325
B11: Ab437: humanized anti-ALK antibody; VL SEQ ID NO: 428, VH SEQ ID NO: 431 (antibody, V domains shown)
VH: B1 VH with P9A, Y32S, W33A, H35Q, R38K, R41P, R44G, R67K
VL: EIVMTQSQATMSTSVGERATLSCKASQNVGTNVAWYQQKPGQSPKALIYGASTRATGVPARFSGSGSGTDFTLTISSVEPEDFAVYYCQQYNSYPYMYTFGQGTKLEIK
modifications: VH domain - Ab353; VL domain - Ab435

System: ALK on the surface of NB1 cells
Test: KD determination by flow cytometry on NB1 cells
Assay type: binding
Conditions: NB1 (human) cells, FACS, mean
Method: FIG. 3 depicts the apparent affinities (KD) of ALK antibodies for ALK expression on the surface of NB1 cells. KD was determined by flow cytometry. Titration of each antibody on NB1 cells for 2-4 hours at 4° C. was followed by incubation with a fluorescently-labeled secondary antibody. The normalized mean fluorescent intensity […] shown as “% Max binding” was plotted as a function of antibody concentration.
Flow cytometry was utilized to measure the affinity at steady state (KD) with which different ALK antibodies bind to ALK on the surface of NB1 cells (FIG. 3). Titration of each antibody on NB1 cells for 2-4 hours at 4° C. was followed by incubation with a fluorescently-labeled secondary antibody. The normalized mean fluorescent intensity (MFI) shown as “% Max binding” was plotted as a function of antibody concentration. The data were fit to a one site binding isotherm using GraphPad Prism, from which affinity values were derived.
(§1) Amino acid residues that differ between rat ALK and mouse ALK are boxed. KD values for both NB1 (human) cells and Neuro2a (mouse) cells were also determined.

| Molecule | Kd [nM] |
| --- | --- |
| B1 | 1.4 |
| B2 | 1.26 |

Target: murine ALK (purified mouse ALK antigen) (Mus musculus, UniProt P97793)
Sequence (P97793 19-1042 limits assumed): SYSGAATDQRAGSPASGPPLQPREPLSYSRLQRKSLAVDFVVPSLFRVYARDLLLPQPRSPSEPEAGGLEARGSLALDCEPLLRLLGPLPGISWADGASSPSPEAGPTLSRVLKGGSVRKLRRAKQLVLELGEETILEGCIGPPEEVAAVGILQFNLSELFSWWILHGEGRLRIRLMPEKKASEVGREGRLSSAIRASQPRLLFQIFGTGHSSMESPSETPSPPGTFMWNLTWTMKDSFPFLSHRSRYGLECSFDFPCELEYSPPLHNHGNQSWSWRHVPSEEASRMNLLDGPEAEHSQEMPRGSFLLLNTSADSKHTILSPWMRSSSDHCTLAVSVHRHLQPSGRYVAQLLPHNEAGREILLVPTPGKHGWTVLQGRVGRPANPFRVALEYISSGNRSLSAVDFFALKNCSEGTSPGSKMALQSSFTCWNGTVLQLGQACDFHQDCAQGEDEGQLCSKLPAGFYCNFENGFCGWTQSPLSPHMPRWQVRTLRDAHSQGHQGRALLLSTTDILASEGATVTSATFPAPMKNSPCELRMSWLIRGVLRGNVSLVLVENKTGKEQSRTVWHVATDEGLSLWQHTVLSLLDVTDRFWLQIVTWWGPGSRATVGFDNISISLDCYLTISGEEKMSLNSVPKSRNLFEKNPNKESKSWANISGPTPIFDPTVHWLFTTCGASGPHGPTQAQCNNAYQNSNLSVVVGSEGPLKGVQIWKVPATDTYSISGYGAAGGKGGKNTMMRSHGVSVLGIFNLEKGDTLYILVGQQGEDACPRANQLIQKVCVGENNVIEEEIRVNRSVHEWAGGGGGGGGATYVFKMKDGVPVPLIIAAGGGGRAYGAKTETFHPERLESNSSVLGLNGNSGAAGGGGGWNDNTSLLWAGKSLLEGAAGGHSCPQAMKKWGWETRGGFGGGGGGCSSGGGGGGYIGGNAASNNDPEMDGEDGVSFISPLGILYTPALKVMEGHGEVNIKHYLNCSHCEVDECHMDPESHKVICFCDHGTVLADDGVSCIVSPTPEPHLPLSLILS
Test: Mouse ALK cross-reactivity, solid-state ELISA
Assay type: binding
Parameters: key: − none; + weak; ++ moderate; +++ strong
Conditions: cross-reactivity with murine ALK
Method: Purified mAbs were evaluated for their ability to bind murine ALK by solid-state ELISA, or flow cytometry on Neuro-2a cells that express low levels of endogenous murine ALK. […]

| mouse ALK binding | Molecule |
| --- | --- |
| + | B3 |
| − | B4 |
| − | B5 |
| +++ | B6 |
| +++ | B7 |
| + | B8 |
| ++ | B9 |
| + | B10 |

Target: C-terminal region of human ALK ECD (T637-S1038) (Homo sapiens, UniProt Q9UM73)
Sequence (Q9UM73 19-1620): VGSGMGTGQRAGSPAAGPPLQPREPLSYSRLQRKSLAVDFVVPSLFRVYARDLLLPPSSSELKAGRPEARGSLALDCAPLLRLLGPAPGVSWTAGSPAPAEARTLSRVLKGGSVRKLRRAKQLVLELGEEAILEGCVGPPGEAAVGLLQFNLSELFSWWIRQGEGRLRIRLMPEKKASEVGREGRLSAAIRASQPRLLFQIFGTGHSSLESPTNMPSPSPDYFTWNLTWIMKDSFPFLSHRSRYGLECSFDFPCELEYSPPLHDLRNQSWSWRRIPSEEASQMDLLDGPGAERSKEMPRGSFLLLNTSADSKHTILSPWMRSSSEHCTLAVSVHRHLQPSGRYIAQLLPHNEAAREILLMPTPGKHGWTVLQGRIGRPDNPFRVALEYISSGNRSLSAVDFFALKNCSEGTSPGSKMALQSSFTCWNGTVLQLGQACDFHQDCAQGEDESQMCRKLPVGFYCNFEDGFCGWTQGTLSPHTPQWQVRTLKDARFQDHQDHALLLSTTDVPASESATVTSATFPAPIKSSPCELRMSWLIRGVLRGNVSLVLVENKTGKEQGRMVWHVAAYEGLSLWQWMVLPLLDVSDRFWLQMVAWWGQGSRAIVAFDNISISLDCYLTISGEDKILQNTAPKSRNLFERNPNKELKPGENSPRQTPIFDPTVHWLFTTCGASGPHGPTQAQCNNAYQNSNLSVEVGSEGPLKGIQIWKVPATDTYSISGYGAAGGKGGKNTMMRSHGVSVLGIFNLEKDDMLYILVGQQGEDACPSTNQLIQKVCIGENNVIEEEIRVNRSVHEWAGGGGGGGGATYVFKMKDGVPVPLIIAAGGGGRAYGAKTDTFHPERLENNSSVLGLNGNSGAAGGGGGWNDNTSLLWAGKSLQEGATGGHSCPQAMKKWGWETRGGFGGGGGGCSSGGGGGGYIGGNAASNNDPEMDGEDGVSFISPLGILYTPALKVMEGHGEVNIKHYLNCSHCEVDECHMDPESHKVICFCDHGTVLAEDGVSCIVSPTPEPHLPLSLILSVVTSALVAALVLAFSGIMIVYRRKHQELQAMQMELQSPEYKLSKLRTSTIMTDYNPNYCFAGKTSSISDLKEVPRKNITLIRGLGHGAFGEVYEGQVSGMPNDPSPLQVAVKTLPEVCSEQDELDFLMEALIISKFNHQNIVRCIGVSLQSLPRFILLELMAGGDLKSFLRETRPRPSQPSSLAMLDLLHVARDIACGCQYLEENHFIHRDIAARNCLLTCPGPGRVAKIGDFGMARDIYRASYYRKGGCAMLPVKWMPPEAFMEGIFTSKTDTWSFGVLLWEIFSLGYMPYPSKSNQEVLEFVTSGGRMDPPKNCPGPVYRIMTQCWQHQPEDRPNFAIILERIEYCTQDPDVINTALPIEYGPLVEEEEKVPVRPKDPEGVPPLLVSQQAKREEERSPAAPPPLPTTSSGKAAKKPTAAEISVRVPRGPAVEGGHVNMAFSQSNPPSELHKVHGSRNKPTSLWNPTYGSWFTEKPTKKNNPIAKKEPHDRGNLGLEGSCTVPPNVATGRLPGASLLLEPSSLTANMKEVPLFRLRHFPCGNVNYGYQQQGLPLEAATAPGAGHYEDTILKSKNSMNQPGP
Test: Competitive binding assay (epitope binning) by flow cytometry
Conditions: antibodies to the C-terminal region
Method: Antibodies that bind to the C-terminal region of human ALK ECD (T637-S1038) were further characterized using a competitive binding assay. A pairwise matrix approach was used whereby each antibody was fluorescently labeled and tested for its ability to bind to ALK-expressing cells pre-incubated with an unlabeled antibody. The ability of both antibodies to bind the C-terminal domain simultaneously was tested via flow cytometry. If both antibodies bound simultaneously, they were put into different bins and considered to belong to a separate epitope class.

| Bin/Domain (bin) | Molecule |
| --- | --- |
| 2 | B5 |
| 2 | B6 |
| 1 | B9 |
| 1 | B10 |

System: ALK (basal phosphorylation in NB1 cells)
Test: Western blot of ALK phosphorylation in NB1 cells
Assay type: cell-based, human
Conditions: effect in words
Method: Lysed cells were subjected to SDS-PAGE, transferred to nitrocellulose and immunoblotted with antibodies against total, and phospho-specific ALK, AKT, and MAPK. FIG. 4B depicts an ELISA of NB1 cells grown in media with reduced serum and treated with 30-100 nM of each antibody for 1-2 hours. Cell lysates were incubated on ELISA plates with an anti-ALK antibody, followed by incubation with a pan phosphotyrosine antibody coupled to HRP.
Cell lysates were subjected to SDS-PAGE and transferred to nitrocellulose. Immunoblotting was performed with antibodies against total, and phospho-specific ALK, AKT, and MAPK (purchased from Cell Signaling and utilized per manufacturer's instructions). HRP (horse radish peroxidase)-conjugated secondary antibodies (Thermo Scientific, Waltham, Mass.) were used along with Supersignal West Pico Chemiluminescent Substrate (Thermo Scientific, Waltham, Mass.) to image blots.
Anti-ALK monoclonal antibodies generated in Example 1 were evaluated via Western blotting for their ability to activate or inhibit basal levels of ALK phosphorylation in NB1 cells (FIG. 4A). A subset of ALK antibodies stimulated ALK tyrosine phosphorylation and a different subset of antibodies inhibited basal levels of ALK phosphorylation. See also Table 18, below. […] That is, ALK antibodies that stimulated ALK tyrosine phosphorylation increased MAPK and AKT phosphorylation, whereas ALK antibodies that inhibited ALK tyrosine phosphorylation decreased basal levels of MAPK and AKT phosphorylation (FIG. 4A). Similar results were obtained in ELISA-based ALK phosphorylation assays from lysates of NB1 cells treated with ALK antibodies (FIG. 4B).

| Molecule | ALK phosphorylation |
| --- | --- |
| B3 | inhibitor |
| B4 | inhibitor |
| B5 | inhibitor |
| B6 | weak agonist |
| B7 | weak agonist |
| B8 | weak agonist |
| B9 | no effect |

System: ALK (total protein levels in NB1 cells)
Test: ALK turnover (total protein levels) by Western blot, 24 hour treatment of NB1 cells
Assay type: cell-based, human
Parameters: key: − none; + weak; ++ moderate; +++ strong
Conditions: not given
Description: FIG. 5 depicts a Western blot of a panel of ALK antibodies.
See also Table 18, below.

| Molecule | ALK turnover |
| --- | --- |
| B5 | − |
| B6 | +++ |
| B9 | − |
| B10 | ++ |

Target: human ALK (hALK, purified ALK protein) (Homo sapiens, UniProt Q9UM73)
Test: Monovalent affinity of humanized antibodies, BLitz System, human ALK
Assay type: binding
Conditions: BLitz, purified ALK protein at 70 μg/mL, single binding site fit; antibody by plate position of Table 19
Method: The humanized ALK antibodies designed in Example 1 were tested for monovalent affinity, wherein the kinetic data are fit to a single binding site equation to obtain relative affinity values.
Kinetic measurements of the monovalent affinity of the 96 humanized ALK antibody variants (Ab351-Ab446) were collected. Affinity ranking was performed using a BLitz® System (ForteBio, Menlo Park, Calif.). Humanized anti-ALK antibodies were immobilized at 0.5 mg/mL using Protein A tips. Once baseline stability was ensured, purified ALK proteins at 70 μg/mL were added. The resulting kinetic data were fit to a single binding site equation, from which the quoted monovalent KD values were derived.
as §1

| Kd [mM] | Molecule |
| --- | --- |
| 6.08 | B11 |

Target: T1, cell surface mALK on Neuro2a cells (Mus musculus, UniProt P97793)
T1 construct: Neuro-2a cells that express low levels of endogenous murine ALK; endogenous in cells; host or cells: Neuro-2a (Neuro2a) mouse neuroblastoma cells
T1 sequence (P97793 19-1621): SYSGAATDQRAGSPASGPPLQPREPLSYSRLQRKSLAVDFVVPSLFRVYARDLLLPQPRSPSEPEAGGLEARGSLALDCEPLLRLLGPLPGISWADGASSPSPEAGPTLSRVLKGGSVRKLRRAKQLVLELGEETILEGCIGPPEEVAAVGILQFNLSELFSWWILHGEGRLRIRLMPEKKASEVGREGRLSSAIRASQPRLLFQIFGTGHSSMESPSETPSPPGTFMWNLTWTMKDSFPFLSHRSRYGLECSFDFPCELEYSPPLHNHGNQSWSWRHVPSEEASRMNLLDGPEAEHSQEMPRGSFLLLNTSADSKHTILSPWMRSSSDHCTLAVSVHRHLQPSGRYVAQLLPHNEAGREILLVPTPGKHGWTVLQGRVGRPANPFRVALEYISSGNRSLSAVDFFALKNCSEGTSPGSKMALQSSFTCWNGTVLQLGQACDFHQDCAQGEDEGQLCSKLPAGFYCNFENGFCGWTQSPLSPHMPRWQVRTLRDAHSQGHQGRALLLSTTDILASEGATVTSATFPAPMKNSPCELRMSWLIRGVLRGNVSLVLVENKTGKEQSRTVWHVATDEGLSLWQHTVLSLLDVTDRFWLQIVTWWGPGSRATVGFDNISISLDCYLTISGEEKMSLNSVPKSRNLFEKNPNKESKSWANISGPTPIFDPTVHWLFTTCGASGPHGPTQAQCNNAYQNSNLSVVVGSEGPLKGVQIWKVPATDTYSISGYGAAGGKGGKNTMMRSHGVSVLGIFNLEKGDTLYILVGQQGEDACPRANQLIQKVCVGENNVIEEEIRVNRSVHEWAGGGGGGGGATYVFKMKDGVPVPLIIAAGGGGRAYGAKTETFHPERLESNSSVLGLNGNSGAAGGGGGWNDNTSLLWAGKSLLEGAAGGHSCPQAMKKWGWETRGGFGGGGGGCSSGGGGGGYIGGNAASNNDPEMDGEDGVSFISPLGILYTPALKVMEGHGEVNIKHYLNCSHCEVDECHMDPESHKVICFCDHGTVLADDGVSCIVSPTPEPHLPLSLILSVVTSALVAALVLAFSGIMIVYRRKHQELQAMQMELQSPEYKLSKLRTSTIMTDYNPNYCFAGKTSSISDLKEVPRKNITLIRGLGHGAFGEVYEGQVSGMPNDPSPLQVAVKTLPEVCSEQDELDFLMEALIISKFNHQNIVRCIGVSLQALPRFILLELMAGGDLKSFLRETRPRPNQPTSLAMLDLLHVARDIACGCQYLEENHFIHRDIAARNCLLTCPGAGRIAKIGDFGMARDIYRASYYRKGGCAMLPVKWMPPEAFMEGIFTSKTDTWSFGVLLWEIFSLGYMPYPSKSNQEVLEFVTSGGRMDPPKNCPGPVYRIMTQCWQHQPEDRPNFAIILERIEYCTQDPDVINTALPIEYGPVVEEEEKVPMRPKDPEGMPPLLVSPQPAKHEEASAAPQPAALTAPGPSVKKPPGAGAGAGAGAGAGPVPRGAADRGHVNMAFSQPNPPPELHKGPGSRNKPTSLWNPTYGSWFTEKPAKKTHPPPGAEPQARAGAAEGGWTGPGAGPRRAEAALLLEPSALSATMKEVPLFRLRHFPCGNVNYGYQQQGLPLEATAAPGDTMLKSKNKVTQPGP
Test: KD of humanized antibodies on Neuro2a (mouse) cells
Assay type: binding
Conditions: FACS, mean
Method: as §1

| Kd [nM] | Molecule |
| --- | --- |
| 7.7 | B1 |
| 5.1 | B2 |

Source: US11091559B2, “Anti-ALK antibodies and methods for use thereof” (Celldex Therapeutics, Inc., priority 2015, dated 2021)
